T1: recombinant human gp130 (human, UniProt P40189 23-619, limits assumed)
T1 sequence (looked up): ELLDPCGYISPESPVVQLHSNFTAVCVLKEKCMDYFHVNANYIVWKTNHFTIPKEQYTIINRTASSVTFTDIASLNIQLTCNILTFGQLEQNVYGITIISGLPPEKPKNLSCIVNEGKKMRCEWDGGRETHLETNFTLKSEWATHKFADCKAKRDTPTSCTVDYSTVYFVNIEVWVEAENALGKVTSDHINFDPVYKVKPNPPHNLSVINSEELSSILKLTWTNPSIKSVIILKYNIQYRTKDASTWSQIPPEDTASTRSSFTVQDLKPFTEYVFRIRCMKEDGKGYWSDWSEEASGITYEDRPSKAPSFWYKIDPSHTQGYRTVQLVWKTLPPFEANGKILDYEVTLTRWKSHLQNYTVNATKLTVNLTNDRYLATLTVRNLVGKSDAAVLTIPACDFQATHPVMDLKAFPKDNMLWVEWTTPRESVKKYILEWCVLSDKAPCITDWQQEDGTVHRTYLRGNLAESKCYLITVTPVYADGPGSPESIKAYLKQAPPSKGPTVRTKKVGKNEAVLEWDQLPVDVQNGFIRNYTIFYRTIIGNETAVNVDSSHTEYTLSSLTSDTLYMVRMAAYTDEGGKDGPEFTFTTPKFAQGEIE

T2: recombinant human LIFR (human, UniProt P42702 45-833, limits assumed)
T2 construct: also called hLIFR; LIF receptor
T2 sequence (looked up): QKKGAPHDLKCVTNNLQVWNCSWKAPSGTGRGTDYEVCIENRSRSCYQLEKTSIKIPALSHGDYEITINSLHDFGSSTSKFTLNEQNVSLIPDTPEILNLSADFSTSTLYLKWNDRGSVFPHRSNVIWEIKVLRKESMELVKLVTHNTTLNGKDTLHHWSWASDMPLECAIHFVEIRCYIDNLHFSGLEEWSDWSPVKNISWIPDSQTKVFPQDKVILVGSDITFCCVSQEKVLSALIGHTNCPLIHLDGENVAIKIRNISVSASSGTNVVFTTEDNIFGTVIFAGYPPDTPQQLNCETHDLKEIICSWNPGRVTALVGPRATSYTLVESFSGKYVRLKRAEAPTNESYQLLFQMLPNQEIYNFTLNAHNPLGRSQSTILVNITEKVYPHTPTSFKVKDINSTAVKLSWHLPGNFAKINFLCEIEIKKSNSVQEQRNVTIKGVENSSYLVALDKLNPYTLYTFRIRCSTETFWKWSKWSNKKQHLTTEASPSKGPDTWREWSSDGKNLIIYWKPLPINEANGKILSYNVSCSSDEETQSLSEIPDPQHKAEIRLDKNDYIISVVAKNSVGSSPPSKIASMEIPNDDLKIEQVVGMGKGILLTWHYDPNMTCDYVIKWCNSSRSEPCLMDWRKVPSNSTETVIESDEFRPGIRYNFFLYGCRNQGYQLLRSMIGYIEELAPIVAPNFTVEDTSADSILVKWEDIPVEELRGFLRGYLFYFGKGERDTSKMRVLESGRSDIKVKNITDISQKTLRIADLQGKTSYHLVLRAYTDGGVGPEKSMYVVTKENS


Experiments:
recombinant human gp130 = target: T1, recombinant human gp130; experiment: ELISA of mAb/LIF complexes on immobilized gp130, read through the antibody part (B09, anti-rat IgG-peroxidase)
[1] = target: LIF acting on U251 / U-251 glioma cells (endogenous LIF) (human, UniProt P15018 23-202); experiment: cell-based or functional assay
huIL-6 (E. coli) = target: T3, huIL-6 (E. coli) (human, UniProt P05231 30-212, limits assumed); experiment: BLI (Octet), h5D8 amine-coupled to AR2G sensor, cytokine as analyte
T3 construct: also called human IL-6
Experimental: Kinetics experiments were then performed with the following Dip and Read steps at 30° C., 1000 rpm: vi) 60 seconds Baseline in 1× kinetics buffer; vii) 180 seconds Association of appropriate serial dilutions of a cytokine in 1× kinetics buffer; viii) 300 seconds Dissociation in 1× kinetics buffer; ix) Three Regeneration/Neutralization cycles alternating between 10 mM glycine pH 2.0 and 1× kinetics buffer respectively (5 seconds in each for 3 cycles). Following regeneration, the biosensors were reused for subsequent binding analyses.

recombinant human LIFR = target: T2, recombinant human LIFR; experiment: BLI (Octet RED96), control experiment, h5D8 on anti-human Fc sensor

Sequence of LIF acting on U251 / U-251 glioma cells (endogenous LIF) (P15018 23-202 limits assumed): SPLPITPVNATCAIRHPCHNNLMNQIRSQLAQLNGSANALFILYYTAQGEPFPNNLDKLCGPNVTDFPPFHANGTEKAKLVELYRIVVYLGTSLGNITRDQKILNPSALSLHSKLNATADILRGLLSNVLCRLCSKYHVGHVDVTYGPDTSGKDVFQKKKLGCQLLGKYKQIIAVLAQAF
T3 sequence (P05231 30-212 limits assumed): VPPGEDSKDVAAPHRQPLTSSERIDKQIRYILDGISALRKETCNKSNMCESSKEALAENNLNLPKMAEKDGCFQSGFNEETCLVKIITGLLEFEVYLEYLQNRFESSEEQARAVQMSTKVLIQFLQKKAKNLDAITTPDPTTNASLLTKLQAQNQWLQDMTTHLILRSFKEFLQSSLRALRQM

Binder | binding result (recombinant human gp130) | IC50 for biological inhibition (pSTAT3), serum starved U-251 cells [1] [picomolar] | binding result (huIL-6 (E. coli)) | binding result (recombinant human LIFR)
human LIF (source not stated) (ligand, also called hLIF; recombinant human LIF protein) not shown | binds |  |  | 
h5D8 (humanized 5D8 comprising H2 and L2) (antibody, human IgG1, kappa, V domains shown, also called H2L2; G (H2L2)) VH: QVQLQESGGGLVKPGGSLRLSCAASGFTFSHAWMHWVRQAPGKGLEWVGQIKAKSDDYATYYAESVKGRFTISRDDSKNTLYLQMNSLKTEDTAVYYCTCWEWDLDFWGQGTMVTVSS VL: DIVMTQTPLSSPVTLGQPASISCRSSQSLLDSDGHTYLNWLQQRPGQPPRLLIYSVSNLESGVPDRFSGSGAGTDFTLKISRVEAEDVGVYYCMQATHAPPYTFGQGTKLEIKR |  | 490 | no binding | no binding
